PMC7659714 (The Journal of Cell Biology, 2020)

Assays:
[1] = biological target: T1, GluA1 expressed in HEK cells (mTurquoise2-GluA1) (mouse, UniProt P23818 19-907); test: co-IP
[2] = biological target: T1, GluA1 expressed in HEK cells …; test: FRET or BRET

T1 sequence (P23818 19-907): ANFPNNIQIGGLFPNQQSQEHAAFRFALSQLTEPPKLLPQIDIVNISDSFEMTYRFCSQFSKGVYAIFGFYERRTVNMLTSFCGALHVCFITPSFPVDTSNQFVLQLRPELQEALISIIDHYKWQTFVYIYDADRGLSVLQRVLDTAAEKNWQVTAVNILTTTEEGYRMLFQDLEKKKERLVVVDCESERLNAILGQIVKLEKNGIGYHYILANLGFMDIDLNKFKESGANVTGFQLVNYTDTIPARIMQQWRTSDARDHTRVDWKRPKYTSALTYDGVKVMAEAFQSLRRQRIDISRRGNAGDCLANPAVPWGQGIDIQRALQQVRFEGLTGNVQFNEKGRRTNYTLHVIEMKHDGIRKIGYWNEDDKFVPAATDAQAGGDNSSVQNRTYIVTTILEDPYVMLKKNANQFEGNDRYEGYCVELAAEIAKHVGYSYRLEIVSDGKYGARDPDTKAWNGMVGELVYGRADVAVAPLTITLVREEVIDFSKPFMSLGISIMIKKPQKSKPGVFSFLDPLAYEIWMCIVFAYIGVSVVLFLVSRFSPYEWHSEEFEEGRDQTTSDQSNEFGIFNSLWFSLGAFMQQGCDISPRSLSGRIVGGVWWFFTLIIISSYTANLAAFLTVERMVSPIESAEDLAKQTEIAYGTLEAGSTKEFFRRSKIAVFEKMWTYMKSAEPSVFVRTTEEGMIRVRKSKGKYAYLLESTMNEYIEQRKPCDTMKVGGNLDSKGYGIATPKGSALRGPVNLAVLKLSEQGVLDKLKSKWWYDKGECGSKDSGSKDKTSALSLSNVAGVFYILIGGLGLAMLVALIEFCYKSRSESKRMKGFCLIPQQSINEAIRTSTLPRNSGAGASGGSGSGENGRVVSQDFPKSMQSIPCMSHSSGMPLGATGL

B1: CPT1CM589S (malonyl-CoA-insensitive CPT1C) expressed in HEK cells for co-immunoprecipitation (natural protein, UniProt Q8BGD5 1-798, looked up)
chain: MAEAHQASSLLSSLSSDGAEVELSSPVWQEIYLCALRSWKRHLWRVWNDFLAGVVPATPLSWLFLFSTIQLACLLQLDPSLGLMEKIKELLPDWGGQHHQLQGFLSAAVFASCLWGALIFTLHVALRLLLSHHGWLLEPHGAMSSPTKTWLALVRIFSGRHPRLFSFQRALPRQPVPSAQETVRKYLESVRPVLGDDAFDRATALANDFLRLHAPRLQLYLQLKSWCTSNYVSDWWEEFVYLRSRGSLINSTYYMMDFLYVTPTPLQAARAGNAVHTLLLYRHLLNRQEISPTLLMGMRPLCSAQYERMFNTTRIPGVEKDHLRHLQDSRHVAVFHRGRFFRVGTHSPNGLLSPRALEQQFQDILDDPSPACPLEEHLAALTAAPRSMWAQVRESVKTHAATALEAVEGAAFFVSLDSEPAGLTREDPAASLDAYAHALLAGRGHDRWFDKSFTLIVFSNGKLGLSVEHSWADCPVSGHLWEFTLATECFQLGYATDGHCKGHPDPTLPQPQRLQWDLPEQIQPSISLALRGAKTLSGNIDCHVFPFSHFGKSFIKCCHVSSDSFIQLVLQLAHFRDRGQFCLTYESASTRLFLEGRTETVRSCTREACQFVRAMDNKETDQHCLALFRVAVDKHQALLKAAMSGQGIDRHLFALYIMSRLLHMQSPFLTQVQSQQWLLSTSQVPVQQTHLIDVHNYPDYVSSGGGFGPAHDHGYGISYIFMGENAITFHISSKKSSTETDSHRLGQHIENALLDVASLFRVGQHFKRQFRGENSDYRYNFLSCKTVDPNTPTSSTNL
For B1, the “coimmunoprecipitated CPT1C versus immunoprecipitated GluA1, relative to WT CPT1C” value [1] was 0.85 ratio to GluA1 + WT CPT1C (1.00).

B2: YFP-CPT1CM589S for FRET (natural protein, UniProt Q8BGD5 1-798, looked up)
chain: MAEAHQASSLLSSLSSDGAEVELSSPVWQEIYLCALRSWKRHLWRVWNDFLAGVVPATPLSWLFLFSTIQLACLLQLDPSLGLMEKIKELLPDWGGQHHQLQGFLSAAVFASCLWGALIFTLHVALRLLLSHHGWLLEPHGAMSSPTKTWLALVRIFSGRHPRLFSFQRALPRQPVPSAQETVRKYLESVRPVLGDDAFDRATALANDFLRLHAPRLQLYLQLKSWCTSNYVSDWWEEFVYLRSRGSLINSTYYMMDFLYVTPTPLQAARAGNAVHTLLLYRHLLNRQEISPTLLMGMRPLCSAQYERMFNTTRIPGVEKDHLRHLQDSRHVAVFHRGRFFRVGTHSPNGLLSPRALEQQFQDILDDPSPACPLEEHLAALTAAPRSMWAQVRESVKTHAATALEAVEGAAFFVSLDSEPAGLTREDPAASLDAYAHALLAGRGHDRWFDKSFTLIVFSNGKLGLSVEHSWADCPVSGHLWEFTLATECFQLGYATDGHCKGHPDPTLPQPQRLQWDLPEQIQPSISLALRGAKTLSGNIDCHVFPFSHFGKSFIKCCHVSSDSFIQLVLQLAHFRDRGQFCLTYESASTRLFLEGRTETVRSCTREACQFVRAMDNKETDQHCLALFRVAVDKHQALLKAAMSGQGIDRHLFALYIMSRLLHMQSPFLTQVQSQQWLLSTSQVPVQQTHLIDVHNYPDYVSSGGGFGPAHDHGYGISYIFMGENAITFHISSKKSSTETDSHRLGQHIENALLDVASLFRVGQHFKRQFRGENSDYRYNFLSCKTVDPNTPTSSTNL
With B2 the “percentage of FRET efficiency” value [2] was 9.51%.

B3: CPT1CΔCterm-FLAG (truncated CPT1C, last 39 aa replaced by FLAG) expressed in HEK cells for co-immunoprecipitation (domain or fragment, UniProt Q8BGD5 1-759, looked up)
chain: MAEAHQASSLLSSLSSDGAEVELSSPVWQEIYLCALRSWKRHLWRVWNDFLAGVVPATPLSWLFLFSTIQLACLLQLDPSLGLMEKIKELLPDWGGQHHQLQGFLSAAVFASCLWGALIFTLHVALRLLLSHHGWLLEPHGAMSSPTKTWLALVRIFSGRHPRLFSFQRALPRQPVPSAQETVRKYLESVRPVLGDDAFDRATALANDFLRLHAPRLQLYLQLKSWCTSNYVSDWWEEFVYLRSRGSLINSTYYMMDFLYVTPTPLQAARAGNAVHTLLLYRHLLNRQEISPTLLMGMRPLCSAQYERMFNTTRIPGVEKDHLRHLQDSRHVAVFHRGRFFRVGTHSPNGLLSPRALEQQFQDILDDPSPACPLEEHLAALTAAPRSMWAQVRESVKTHAATALEAVEGAAFFVSLDSEPAGLTREDPAASLDAYAHALLAGRGHDRWFDKSFTLIVFSNGKLGLSVEHSWADCPVSGHLWEFTLATECFQLGYATDGHCKGHPDPTLPQPQRLQWDLPEQIQPSISLALRGAKTLSGNIDCHVFPFSHFGKSFIKCCHVSSDSFIQLVLQLAHFRDRGQFCLTYESAMTRLFLEGRTETVRSCTREACQFVRAMDNKETDQHCLALFRVAVDKHQALLKAAMSGQGIDRHLFALYIMSRLLHMQSPFLTQVQSQQWLLSTSQVPVQQTHLIDVHNYPDYVSSGGGFGPAHDHGYGISYIFMGENAITFHISSKKSSTETDSHRLGQHIENALLDVASL
With B3 the “coimmunoprecipitated CPT1C versus immunoprecipitated GluA1, relative to WT CPT1C” value [1] was 0.12 ratio to GluA1 + WT CPT1C (1.00).

B4: YFP-CPT1C, wild type, for FRET (CPT1C-SYFP2) (natural protein, human, UniProt Q8TCG5 1-803, looked up)
chain: MAEAHQAVGFRPSLTSDGAEVELSAPVLQEIYLSGLRSWKRHLSRFWNDFLTGVFPASPLSWLFLFSAIQLAWFLQLDPSLGLMEKIKELLPDWGGQHHGLRGVLAAALFASCLWGALIFTLHVALRLLLSYHGWLLEPHGAMSSPTKTWLALVRIFSGRHPMLFSYQRSLPRQPVPSVQDTVRKYLESVRPILSDEDFDWTAVLAQEFLRLQASLLQWYLRLKSWWASNYVSDWWEEFVYLRSRNPLMVNSNYYMMDFLYVTPTPLQAARAGNAVHALLLYRHRLNRQEIPPTLLMGMRPLCSAQYEKIFNTTRIPGVQKDYIRHLHDSQHVAVFHRGRFFRMGTHSRNSLLSPRALEQQFQRILDDPSPACPHEEHLAALTAAPRGTWAQVRTSLKTQAAEALEAVEGAAFFVSLDAEPAGLTREDPAASLDAYAHALLAGRGHDRWFDKSFTLIVFSNGKLGLSVEHSWADCPISGHMWEFTLATECFQLGYSTDGHCKGHPDPTLPQPQRLQWDLPDQIHSSISLALRGAKILSENVDCHVVPFSLFGKSFIRRCHLSSDSFIQIALQLAHFRDRGQFCLTYESAMTRLFLEGRTETVRSCTREACNFVRAMEDKEKTDPQCLALFRVAVDKHQALLKAAMSGQGVDRHLFALYIVSRFLHLQSPFLTQVHSEQWQLSTSQIPVQQMHLFDVHNYPDYVSSGGGFGPADDHGYGVSYIFMGDGMITFHISSKKSSTKTDSHRLGQHIEDALLDVASLFQAGQHFKRRFRGSGKENSRHRCGFLSRQTGASKASMTSTDF
With B4 the “percentage of FRET efficiency” value [2] was 8.7%.
